# Measured values as given in patent US20220332839A1, “USE OF PRG4 TO TREAT CANCER” (Lubris LLC, priority 2019, published 2022).
# Experiments:
# HLE and HLF cells [1] = experiment: HCC trans-well migration assay on fibronectin; format: cell-based, human; conditions: soluble rhPRG4 25 μg/ml; 16 hours
# Description: (§1) Stable CD44 silencing: HLE and HLF cell lines were transduced with lentiviral particles carrying control non-targeting (V), or specific CD44-targeting shRNA sequences (A to D), and selected with puromycin dihydrochloride (Thermo Fisher Scientific) to obtain stable CD44 silencing, according to manufacturer instructions (OriGene Technologies, Inc., Rockville, Md. 20850, USA). Control-shRNA sequence (V) and CD44-shRNA sequence B were used in all the experiments involving CD44 downregulation.
# Trans-well migration assay: The assay was performed as previously described. (Dituri et al., PLoS One 2013. doi:10.1371/journal.pone.0067109). Briefly, 15,000 cells were loaded onto the top chamber of the trans-well, whose membrane was previously coated with fibronectin on the lower surface, and left to migrate for 16 hours in the presence/absence of rhPRG4 (25 μg/ml) diluted in serum-free DMEM medium (+0.5% BSA) in the lower chamber. The cells were then paraformaldehyde-fixed and stained with crystal violet. Five fields/membrane were captured and the number of cells/field was measured.
# Hep3B = experiment: 72-hour proliferation assay, Hep3B; format: cell-based, human; conditions: only at the highest rhPRG4 concentrations; drug 2.5 μM
# Protocol: Proliferation assay: In 100 μl complete medium, 3,000 cells were seeded in wells of a 96-well plate and left overnight to allow complete attachment. The next day (at time t=0 hours), the medium was removed and replaced with 100 μl of fresh medium in the presence/absence of Sorafenib (2.5 μM), Regorafenib (2.5 μM), rhPRG4 (12.5 to 100 μg/ml). Dimethyl sulfoxide (DMSO) and PBS+0.01% Tween-20 were used as vehicles of Sorafenib/Regorafenib, and rhPRG4, respectively. Cells in triplicate wells for each cell line were fixed at t=0 hours with 4% paraformaldehyde (PFA, pH 7.6, 10 min incubation), then stained with crystal violet (CV) and thoroughly washed to remove the excess staining. After 72 hours, the cells were fixed by adding 100 μl of 4% PFA directly to the medium (2% final PFA concentration, 20 min incubation), and processed for CV staining as previously described. Then, 100 or 200 μl of 1% sodium dodecyl-sulphate were added to the wells and the plates were left under shaking until complete CV release from stained cells. Optical density was at 595 nm wavelength measured using a plate reader.
# HLE and HLF cells [2] = experiment: HCC cell adhesion assay on coated wells; format: cell-based, human; conditions: CD44-shRNA vs control-shRNA; 30 minutes
# Description: as §1
# Adhesion assay: Diluted in 100 μl of serum free DMEM medium (+0.5% BSA), 50,000 cells, were seeded onto uncoated, rhPRG4, or fibronectin (FN)-coated wells of a 96-well plate, and then incubated at 37° C., 5% CO2 for 30 minutes. An equal volume of 4% PFA (pH 7.2 in PBS) was added and the plates were immediately flicked for a few seconds to allow mixing. Thirty minutes later, the medium was removed and the adherent cells were stained with crystal violet for 10 min. After abundant washing with tap water and distilled water the stained cells were allowed to dry out, and then they were solubilized with 100 μl of 1% sodium dodecyl sulphate in water. Absorbance was read at 595 nm and proportionally related to the number of adhered cells.
# CD44-IgG1Fc = molecular target: T1, CD44-IgG1Fc (Homo sapiens, UniProt P16070); experiment: Direct ELISA: binding of coated macromolecules to CD44-IgG1Fc
# T1 construct: purchased R & D systems
# T1 sequence (P16070 with tags, fused parts or gaps limits assumed): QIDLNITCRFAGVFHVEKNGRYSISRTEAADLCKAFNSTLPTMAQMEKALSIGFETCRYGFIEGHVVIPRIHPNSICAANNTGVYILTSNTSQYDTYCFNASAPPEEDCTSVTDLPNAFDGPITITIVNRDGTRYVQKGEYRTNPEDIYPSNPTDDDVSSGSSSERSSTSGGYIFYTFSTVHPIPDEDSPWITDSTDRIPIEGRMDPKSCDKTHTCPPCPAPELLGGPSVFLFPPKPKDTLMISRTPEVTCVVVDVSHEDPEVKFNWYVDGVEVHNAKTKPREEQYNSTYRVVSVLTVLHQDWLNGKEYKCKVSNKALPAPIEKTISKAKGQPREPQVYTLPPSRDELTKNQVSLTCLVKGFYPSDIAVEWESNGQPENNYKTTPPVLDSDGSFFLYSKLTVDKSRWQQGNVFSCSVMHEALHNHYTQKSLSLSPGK
# Protocol: High-binding microtiter plates (Corning, Sigma Aldrich, USA) were coated with rhPRG4 (Mr≅240 KDa), high molecular weight HA (HMW HA; Mr≅1,500 KDa) (R & D System, USA), medium molecular weight HA (MMW HA; Mr≅′300KDa) (R & D System) and vitronectin KDa) (Sigma Aldrich) at 400 μg/mL in PBS buffer (100 μL per well) overnight at 4° C. rhPRG4 is a full-length product produced by CHO-M cells (Lubris, Framingham, Mass., USA). Following washing with PBS+0.1% Tween 20, wells were blocked with 2% bovine serum albumin (BSA; 300 μL per well) for at least 2 hours at room temperature. CD44-IgG1Fc (R & D systems) or IgG1Fc (R & D systems), each at 1 μg/mL (100 μl per well), were added to the plate and incubated for 60 min at room temperature. Following washing with PBS+0.1% tween 20, anti-IgG1Fc-HRP (Sigma Aldrich) was added at 1:10,000 dilution (100 μL per well) and incubated for 60 min at room temp. Following washing with PBS+0.1% tween 20, the assay was developed using 1-step Turbo TMB ELISA reagent (ThermoScientific, USA) and absorbance was measured at 450 nm. The data represents an average of 4 independent assays, each with triplicate wells per group.
# The concentration-dependent binding of rhPRG4, HMW HA and MMW HA to CD44 was performed by coating microtiter plates with 400, 200, 100, 20, 4, 2 and 0.1 μg/mL of the macromolecules. The assay was performed as described above. The absorbance values in the IgG1Fc wells were subtracted from the absorbance values in the CD44 IgG1Fc wells and the corrected CD44 IgG1Fc absorbance values were normalized to those of the 400 μg/mL rhPRG4 group and data was expressed as percentage binding to CD44. The concentration-dependent binding of rhPRG4, HMW HA and MMW HA to recombinant CD44 is depicted in FIG. 1B. […] The data represents an average of 4 independent assays, each with triplicate wells per group.
# rhPRG4 was digested using sialidase A (Prozyme, USA), O-glycosidase (New England Biolabs, USA) or a combination of sialidase A and O-glycosidase for 16 hours at 37° C. In the sialidase A digestion, 12 μL of the enzyme (1U/200 μL) was added to rhPRG4 in a total reaction volume of 180 μL and a rhPRG4 final concentration of 300 μg/mL. In the O-glycosidase digestion, 4.8 μL of the enzyme (40million units/mL) was added to rhPRG4 in a total reaction volume of 180 μL and a rhPRG4 final concentration of 300 μg/mL under non-denaturing conditions. In the sialidase-A and O-glycosidase digestion, the enzymes were used in volumes identical to the ones stated above and incubated with rhPRG4 in a total reaction volume and final rhPRG4 concentration as stated above. The effect of sialidase-A and O-glycosidase digestions on rhPRG4 apparent molecular weight was determined by SDS-PAGE using 4-12% Bis-Tris gel (NuPage, life technologies, USA). A total of 20 μL of rhPRG4 or enzyme-digested rhPRG4 was run under reducing conditions ([…] for 60 min) followed by staining using Gelcode Blue Stain (Thermo Scientific, USA). Binding of enzymatically digested rhPRG4 to CD44 was compared to undigested rhPRG4 using the direct ELISA approach described above and using an rhPRG4 coating concentration of 30 μg/mL. Data represents the average of 4 independent experiments, each with triplicate wells per group.
substance,measurement,setting,value
rhPRG4: full-length recombinant human PRG4 (lubricin) glycoprotein produced by CHO-M cells; residues 25-1404 of SEQ ID NO:1,migration of cells on fibronectin,HLE and HLF cells [1],impairs the migration
same,rhPRG4-drug synergistic effect,Hep3B,"present during Hep3B proliferation, even if lower"
same,cell adhesion to lubricin-coated wells,HLE and HLF cells [2],impaired upon silencing of CD44 expression
same,"concentration-dependent binding to CD44, affinity",CD44-IgG1Fc,comparable affinity to HMW HA
same,"percentage CD44 binding between rhPRG4, HMW HA and MMW HA-coated wells",CD44-IgG1Fc; 0.1 μg/mL coating,no significant differences
same,percentage recombinant CD44 binding compared to MMW HA coated wells,"CD44-IgG1Fc; 200 μg/mL coating, p<0.001",significantly higher
same,percentage recombinant CD44 binding compared to HMW HA or MMW HA-coated wells,"CD44-IgG1Fc; 400, 100, 20, 4 and 2 μg/mL coating, p<0.001",significantly higher
same,450 nm absorbance in the CD44-IgG1Fc group vs the IgG1Fc group,"CD44-IgG1Fc; wells coated at 400 μg/mL, CD44-IgG1Fc or IgG1Fc at 1 μg/mL",significantly higher
